{"source": "patent US20250115669A1", "about": "“FGFR1/KLB Targeting Agonistic Antigen-Binding Proteins and Conjugates Thereof with GLP-1R Agonistic Peptides” (SANOFI, priority 2020, published 2025)", "molecules": {"B1": {"name": "Ab0333: IgG4 PE; 16H7 VL (N25S, D49S, D50Y, D91A, N93S); 16H7 VH (M34V, I83T, D109E) (antibody)", "VH": "QVTLKESGPVLVKPTETLTLTCTVSGFSLNNARVGVSWIRQPPGKALEWLAHIFSNDEKSYSTSLKSRLTISKDTSKSQVVLTMTNMDPVDTATYYCARSVVTGGYYYEGMDVWGQGTTVTVSS", "light": "SYVLTQPPSVSVAPGQTARITCGGSNIGSESVHWYQQKPGQAPVLVVYSYSDRPSGIPERFSGSNSGNTATLTISRVEAGDEADYYCQVWAGSSDHVVFGGGTKLTVLGQPKANPTVTLFPPSSEELQANKATLVCLISDFYPGAVTVAWKADGSPVKAGVETTKPSKQSNNKYAASSYLSLTPEQWKSHRSYSCQVTHEGSTVEKTVAPTECS"}, "B2": {"name": "Ab0334: IgG4 PE; 16H7 VL (N25S, D49S, D50A, D91A, N93S); 16H7 VH (M34V, I83T, D109E) (antibody)", "VH": "B1 VH", "light": "B1 light with Y50A"}, "B3": {"name": "Ab0337: IgG4 PE; 16H7 VL (N25S, D49S, D50H, D91E, N93E); 16H7 VH (M34V, I83T, D109E) (antibody)", "VH": "B1 VH", "light": "B1 light with Y50H, A91E, S93E"}, "B4": {"name": "Ab0352: IgG4 PE; 16H7 VL (N25S, D49E, D50E, D91E, N93S); 16H7 VH (M34V, I83T, D109E) (antibody)", "VH": "B1 VH", "light": "B1 light with S49E, Y50E, A91E"}, "B5": {"name": "Ab0348: IgG4 PE; 16H7 VL (N25S, D49E, D50E, D91T, N93E); 16H7 VH (M34V, I83T, D109E) (antibody)", "VH": "B1 VH", "light": "B1 light with S49E, Y50E, A91T, S93E"}, "B6": {"name": "Ab0340: IgG4 PE; 16H7 VL (N25S, D49A, D50E, D91E, N93S); 16H7 VH (M34V, I83T, D109E) (antibody)", "VH": "B1 VH", "light": "B1 light with S49A, Y50E, A91E"}, "B7": {"name": "Ab0355: IgG4 PE; 16H7 VL (N25S, D49E, D50Y, D91E, N93S); 16H7 VH (M34V, I83T, D109E) (antibody)", "VH": "B1 VH", "light": "B1 light with S49E, A91E"}, "B8": {"name": "Ab0341: IgG4 PE; 16H7 VL (N25S, D49A, D50Y, D91A, N93S); 16H7 VH (M34V, I83T, D109E) (antibody)", "VH": "B1 VH", "light": "B1 light with S49A"}, "B9": {"name": "Ab0339: IgG4 PE; 16H7 VL (N25S, D49A, D50E, D91A, N93S); 16H7 VH (M34V, I83T, D109E) (antibody)", "VH": "B1 VH", "light": "B1 light with S49A, Y50E"}, "B10": {"name": "Ab0344: IgG4 PE; 16H7 VL (N25S, D49A, D50A, D91E, N93S); 16H7 VH (M34V, I83T, D109E) (antibody)", "VH": "B1 VH", "light": "B1 light with S49A, Y50A, A91E"}, "B11": {"name": "Ab0343: IgG4 PE; 16H7 VL (N25S, D49A, D50A, D91A, N93S); 16H7 VH (M34V, I83T, D109E) (antibody)", "VH": "B1 VH", "light": "B1 light with S49A, Y50A"}, "B12": {"name": "Ab0353: IgG4 PE; 16H7 VL (N25S, D49E, D50E, D91E, N93A); 16H7 VH (M34V, I83T, D109E) (antibody)", "VH": "B1 VH", "light": "B1 light with S49E, Y50E, A91E, S93A"}, "B13": {"name": "Ab0350: IgG4 PE; 16H7 VL (N25S, D49E, D50E, D91A, N93S); 16H7 VH (M34V, I83T, D109E) (antibody)", "VH": "B1 VH", "light": "B1 light with S49E, Y50E"}, "B14": {"name": "Ab0354: IgG4 PE; 16H7 VL (N25S, D49E, D50E, D91H, N93S); 16H7 VH (M34V, I83T, D109E) (antibody)", "VH": "B1 VH", "light": "B1 light with S49E, Y50E, A91H"}, "B15": {"name": "Ab0345: IgG4 PE; 16H7 VL (N25S, D49A, D50A, D91E, N93A); 16H7 VH (M34V, I83T, D109E) (antibody)", "VH": "B1 VH", "light": "B1 light with S49A, Y50A, A91E, S93A"}, "B16": {"name": "Ab0347: IgG4 PE; 16H7 VL (N25S, D49A, D50S, D91A, N93S); 16H7 VH (M34V, I83T, D109E) (antibody)", "VH": "B1 VH", "light": "B1 light with S49A, Y50S"}, "B17": {"name": "Ab0342: IgG4 PE; 16H7 VL (N25S, D49A, D50A, D91A, N93E); 16H7 VH (M34V, I83T, D109E) (antibody)", "VH": "B1 VH", "light": "B1 light with S49A, Y50A, S93E"}, "B18": {"name": "Ab0346: IgG4 PE; 16H7 VL (N25S, D49A, D50H, D91A, N93S); 16H7 VH (M34V, I83T, D109E) (antibody)", "VH": "B1 VH", "light": "B1 light with S49A, Y50H"}, "B19": {"name": "Ab0356: IgG4 PE; 16H7 VL (N25S, D49E, D50A, D91A, N93S); 16H7 VH (M34V, I83T, D109E) (antibody)", "VH": "B1 VH", "light": "B1 light with S49E, Y50A"}, "B20": {"name": "Ab0349: IgG4 PE; 16H7 VL (N25S, D49E, D50E, D91T, N93S); 16H7 VH (M34V, I83T, D109E) (antibody)", "VH": "B1 VH", "light": "B1 light with S49E, Y50E, A91T"}, "B21": {"name": "Ab0338: IgG4 PE; 16H7 VL (N25S, D49S, D50S, D91A, N93S); 16H7 VH (M34V, I83T, D109E) (antibody)", "VH": "B1 VH", "light": "B1 light with Y50S"}, "B22": {"name": "Ab0336: IgG4 PE; 16H7 VL (N25S, D49S, D50H, D91A, N93S); 16H7 VH (M34V, I83T, D109E) (antibody)", "VH": "B1 VH", "light": "B1 light with Y50H"}}, "note": "Changes are numbered by the printed parent chain. In names and notes the source's numbering stands.", "data": [{"target": "T1, human beta-Klotho (Homo sapiens, UniProt Q86Z14)", "T1 sequence (Q86Z14 1-1044)": "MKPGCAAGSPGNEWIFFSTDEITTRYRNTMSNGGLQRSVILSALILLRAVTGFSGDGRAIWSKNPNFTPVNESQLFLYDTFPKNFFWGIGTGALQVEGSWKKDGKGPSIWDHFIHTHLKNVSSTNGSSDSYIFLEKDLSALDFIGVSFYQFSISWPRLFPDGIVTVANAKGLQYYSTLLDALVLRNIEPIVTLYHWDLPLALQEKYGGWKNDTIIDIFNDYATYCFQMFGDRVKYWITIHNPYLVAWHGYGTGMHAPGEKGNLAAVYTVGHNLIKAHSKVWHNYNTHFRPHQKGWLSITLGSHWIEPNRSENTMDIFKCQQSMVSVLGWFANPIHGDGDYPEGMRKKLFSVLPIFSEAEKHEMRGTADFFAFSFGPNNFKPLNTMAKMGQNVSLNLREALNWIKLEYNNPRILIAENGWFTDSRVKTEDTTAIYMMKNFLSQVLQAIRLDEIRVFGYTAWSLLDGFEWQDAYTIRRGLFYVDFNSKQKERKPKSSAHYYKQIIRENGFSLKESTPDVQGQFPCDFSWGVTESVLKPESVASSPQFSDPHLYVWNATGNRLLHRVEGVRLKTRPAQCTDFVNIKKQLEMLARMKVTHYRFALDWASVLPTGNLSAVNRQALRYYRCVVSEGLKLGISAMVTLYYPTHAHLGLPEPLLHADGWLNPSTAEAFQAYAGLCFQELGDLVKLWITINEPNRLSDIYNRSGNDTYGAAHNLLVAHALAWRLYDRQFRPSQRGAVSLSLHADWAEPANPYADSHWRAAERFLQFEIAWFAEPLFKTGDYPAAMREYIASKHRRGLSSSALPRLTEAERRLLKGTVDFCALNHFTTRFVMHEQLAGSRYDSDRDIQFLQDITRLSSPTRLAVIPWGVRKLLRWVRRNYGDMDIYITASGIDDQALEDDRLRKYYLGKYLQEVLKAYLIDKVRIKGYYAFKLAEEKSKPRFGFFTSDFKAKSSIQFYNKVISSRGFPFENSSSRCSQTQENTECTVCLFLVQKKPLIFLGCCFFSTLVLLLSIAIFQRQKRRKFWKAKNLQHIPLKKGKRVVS", "assay": "SPR off-rate screening of antibody mutants (human beta-Klotho captured by anti-His antibody)", "type": "binding", "conditions": "mean, n=3", "description": "Screening of antibody mutants for binding to human beta-Klotho was determined in a different SPR assay set up. Human beta-Klotho was affinity captured by an anti-His antibody (from His capture kit, GE Healthcare) that was immobilized to a series S CM5 chip (GE Healthcare) by amine reactive coupling as described above. The antibody samples were used as analytes at 50 nmol/L concentration. Association time was 240 sec and dissociation time was 300 sec. Chip surfaces were regenerated using the regeneration solution supplied with the His capture kit. The off-rates (kd) were determined using single exponential fitting in the Biacore 8K Evaluation Software version 1.1.1.7442 (GE Healthcare).", "values": [{"molecule": "B1", "koff human KLB": "0.0002507 s⁻¹"}, {"molecule": "B2", "koff human KLB": "invalid fit"}, {"molecule": "B3", "koff human KLB": "0.0005296 s⁻¹"}, {"molecule": "B4", "koff human KLB": "0.0004194 s⁻¹"}, {"molecule": "B5", "koff human KLB": "invalid fit"}, {"molecule": "B6", "koff human KLB": "0.00176 s⁻¹"}, {"molecule": "B7", "koff human KLB": "0.00195 s⁻¹"}, {"molecule": "B8", "koff human KLB": "invalid fit"}, {"molecule": "B9", "koff human KLB": "invalid fit"}, {"molecule": "B10", "koff human KLB": "0.00168 s⁻¹"}, {"molecule": "B11", "koff human KLB": "invalid fit"}, {"molecule": "B12", "koff human KLB": "0.0003799 s⁻¹"}, {"molecule": "B13", "koff human KLB": "invalid fit"}, {"molecule": "B14", "koff human KLB": "0.00158 s⁻¹"}, {"molecule": "B15", "koff human KLB": "0.00188 s⁻¹"}, {"molecule": "B16", "koff human KLB": "invalid fit"}, {"molecule": "B17", "koff human KLB": "invalid fit"}, {"molecule": "B18", "koff human KLB": "invalid fit"}, {"molecule": "B19", "koff human KLB": "invalid fit"}, {"molecule": "B20", "koff human KLB": "invalid fit"}, {"molecule": "B21", "koff human KLB": "0.0004292 s⁻¹"}, {"molecule": "B22", "koff human KLB": "invalid fit"}]}]}
